{"source": "paper PMC10365314", "about": "“Noncanonical contribution of microglial transcription factor NR4A1 to post-stroke recovery through TNF mRNA destabilization”", "molecular_target": "His-GST-NR4A1 (Mus musculus, UniProt P12813 1-601)", "sequence (P12813 whole entry)": "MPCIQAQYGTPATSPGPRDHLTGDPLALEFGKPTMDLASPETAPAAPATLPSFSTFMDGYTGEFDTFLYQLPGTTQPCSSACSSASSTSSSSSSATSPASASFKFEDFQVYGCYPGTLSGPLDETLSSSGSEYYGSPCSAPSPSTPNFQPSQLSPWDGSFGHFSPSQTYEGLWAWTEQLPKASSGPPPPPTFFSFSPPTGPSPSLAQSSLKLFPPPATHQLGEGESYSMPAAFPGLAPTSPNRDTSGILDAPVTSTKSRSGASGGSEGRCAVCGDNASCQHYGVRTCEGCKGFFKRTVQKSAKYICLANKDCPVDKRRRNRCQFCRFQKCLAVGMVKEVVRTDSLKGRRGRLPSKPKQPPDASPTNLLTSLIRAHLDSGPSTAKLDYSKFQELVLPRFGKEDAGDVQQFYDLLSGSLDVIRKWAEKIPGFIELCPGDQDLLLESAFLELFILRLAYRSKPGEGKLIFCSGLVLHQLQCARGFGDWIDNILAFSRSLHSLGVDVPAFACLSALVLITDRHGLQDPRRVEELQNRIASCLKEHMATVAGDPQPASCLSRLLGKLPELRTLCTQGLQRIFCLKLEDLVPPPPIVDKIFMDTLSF", "assay": "EMSA; glutaraldehyde 0.2% added after binding; 10 mM HEPES pH 7.6, 50 mM KCl, 1 mM EDTA, 0.05% Triton X-100, 5% glycerol, 1 mM DTT, 40 U/ml RNasin; REMSA: 2 nM probe, room temperature 30 min; pull-down: 50 pmol probe, 250 ug extract, 4 C 3 h", "conditions": "protein: recombinant; tags: His-GST; label: 5' biotin; single strand"}
{"binder": "CGUCUCGGACUCGGACUGCU (ssRNA, m6A at positions 9 and 15 (as printed: CGUCUCGG(m6A)CUCGG(m6A)CUGCU))", "note": "[GGACU probe, m6A]", "values": [{"measurement": "binding result", "value": "binds"}]}
